Columns and labels:
[1] = target: T1, recombinant Crtac1B fragment #5 (human, UniProt Q9NQ79 28-606); experiment: antigen immobilized ELISA; reference fCrtac1B (1-609)
T1 construct: also called fCrtac1B (1-608)
T1 sequence: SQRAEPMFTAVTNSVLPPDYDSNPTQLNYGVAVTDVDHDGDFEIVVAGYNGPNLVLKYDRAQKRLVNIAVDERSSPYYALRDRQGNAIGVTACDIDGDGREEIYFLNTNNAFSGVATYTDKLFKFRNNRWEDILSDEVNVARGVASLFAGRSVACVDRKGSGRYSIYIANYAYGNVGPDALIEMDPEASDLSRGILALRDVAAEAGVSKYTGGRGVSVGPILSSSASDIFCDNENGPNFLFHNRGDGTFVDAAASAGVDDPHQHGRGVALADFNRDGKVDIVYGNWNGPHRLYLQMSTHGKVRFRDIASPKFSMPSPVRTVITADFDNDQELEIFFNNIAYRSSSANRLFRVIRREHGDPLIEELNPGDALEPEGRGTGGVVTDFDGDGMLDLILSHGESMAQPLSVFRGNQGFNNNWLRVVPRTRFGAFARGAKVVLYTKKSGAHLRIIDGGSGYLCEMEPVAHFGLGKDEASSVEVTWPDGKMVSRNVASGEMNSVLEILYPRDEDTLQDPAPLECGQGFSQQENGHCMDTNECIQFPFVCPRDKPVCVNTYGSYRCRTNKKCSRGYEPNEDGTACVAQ
Protocol: The positive antigen and the negative control were diluted to a concentration of 20 μg/mL with dilution buffer I (20 mM potassium phosphate buffer (pH 7.4), 150 mM NaCl). A positive antigen (50 μL) and a negative control (50 μL) were added to each well of a 96 well plate, respectively. Then, the plate was incubated at 4° C. overnight, and the positive antigen and the negative control were immobilized in the well to obtain an antigen immobilized plate. Each well was washed twice with a washing solution (250 μL, 0.05% Tween (registered trademark) 20/20 mM potassium phosphate buffer (pH 7.4), 150 mM NaCl). To each well was added a blocking buffer (250 μL, 5% skim milk/20 mM potassium phosphate buffer (pH 7.4), 150 mM NaCl), and blocked at room temperature for 90 minutes. Culture supernatant (50 μL) of each hybridoma selected by primary screening was added to each well, and the cells were incubated at 37° C. for 1 hour. Each well was washed three times with a washing solution (250 μL). The HRP-labeled anti-mouse IgG antibody (MBL, product number 330) was diluted 1:1,000 with dilution buffer II (1% skim milk/20 mM potassium phosphate buffer (pH 7.4), 150 mM NaCl). […] The plate was set in a microplate reader (Thermo Fisher Scientific, Varioskan (registered trademark) Flash), and the color development intensity at 655 nm was measured for each well. […]

[2] = target: T2, recombinant Crtac1B fragment #7 (negative control) (human, UniProt Q9NQ79 28-606); experiment: antigen immobilized ELISA, hybridoma culture supernatant, color development at 655 nm same as plate without antigen
T2 construct: also called fCrtac1B (1-606)
T2 sequence: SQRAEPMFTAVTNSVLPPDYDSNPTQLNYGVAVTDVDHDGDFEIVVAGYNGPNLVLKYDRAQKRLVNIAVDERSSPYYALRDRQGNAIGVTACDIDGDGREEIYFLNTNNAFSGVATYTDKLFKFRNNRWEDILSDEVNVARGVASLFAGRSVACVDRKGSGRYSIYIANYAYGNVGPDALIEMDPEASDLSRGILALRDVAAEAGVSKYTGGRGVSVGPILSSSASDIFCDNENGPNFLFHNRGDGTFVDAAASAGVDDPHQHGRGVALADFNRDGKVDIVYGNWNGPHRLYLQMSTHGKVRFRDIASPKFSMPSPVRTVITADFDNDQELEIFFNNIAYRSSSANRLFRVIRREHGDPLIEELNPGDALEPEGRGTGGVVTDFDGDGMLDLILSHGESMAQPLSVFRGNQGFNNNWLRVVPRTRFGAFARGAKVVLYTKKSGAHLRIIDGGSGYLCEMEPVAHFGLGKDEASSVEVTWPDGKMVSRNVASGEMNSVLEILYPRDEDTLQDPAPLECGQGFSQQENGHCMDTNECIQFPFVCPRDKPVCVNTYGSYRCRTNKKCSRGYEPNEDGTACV
Protocol: A positive antigen (50 μL) and a negative control (50 μL) were added to each well of a 96 well plate, respectively. Then, the plate was incubated at 4° C. overnight, and the positive antigen and the negative control were immobilized in the well to obtain an antigen immobilized plate. Each well was washed twice with a washing solution (250 μL, 0.05% Tween (registered trademark) 20/20 mM potassium phosphate buffer (pH 7.4), 150 mM NaCl). To each well was added a blocking buffer (250 μL, 5% skim milk/20 mM potassium phosphate buffer (pH 7.4), 150 mM NaCl), and blocked at room temperature for 90 minutes. Culture supernatant (50 μL) of each hybridoma selected by primary screening was added to each well, and the cells were incubated at 37° C. for 1 hour. Each well was washed three times with a washing solution (250 μL). The HRP-labeled anti-mouse IgG antibody (MBL, product number 330) was diluted 1:1,000 with dilution buffer II (1% skim milk/20 mM potassium phosphate buffer (pH 7.4), 150 mM NaCl). A solution (50 μL) of this labeled antibody was added to each well, and the well was incubated at 37° C. for 1 hour. Each well was washed five times with a washing solution (250 μL). Chemical chromogenic substrate solutions (Bio-Rad, TMB Peroxidase EIA Substrate Kit) were added to respective wells at 50 μL, and the plate was allowed to stand at room temperature under shading for 30 minutes. The plate was set in a microplate reader (Thermo Fisher Scientific, Varioskan (registered trademark) Flash), and the color development intensity at 655 nm was measured for each well.
Reactivity of the monoclonal antibody contained in the culture supernatant of the hybridomas of clones 1B4 and 15C2 to the antigen was confirmed by ELISA using the 7 recombinant Crtac1B fragments described above. A specific operation was the same as that of the antigen immobilized ELISA method of Example 1. For comparison, ELISA was performed in the same manner using a 96 well plate in which no antigen was immobilized.
In addition, as to these monoclonal antibodies, the color development intensity when the recombinant Crtac1B fragments of #6 and #7 were used was substantially the same as that when a plate without immobilizing the antigen was used.

B1: 15C2 antibody (monoclonal antibody derived from the hybridoma of clone 15C2) (antibody, mouse IgG1, kappa, V domains shown)
VH: EVQLQQFGAELVKPGASVKISCKASGYTFTDYNMDWVKQSHGKSLEWIGDINPNYDSSSYNQKFKGKATLTVDKSSSTAYMELRSLTSEDTAVYYCTRSGGTYWGQGTLVTVSA
VL: DIQMNQSPSSLSASLGDTITITCHASQNINVWLSWYQQKPGNIPKLLIYKASNLHTGVPSRFSGSGSGTGFSLTISSLQPEDIATYYCQQAQSYPRTFGGGTKLEIKR
notes: Mouse IgG1; Used as hybridoma culture supernatant (ELISA) or purified from supernatant (IB, IP); also called anti-Crtac1B antibody; antibody of the present embodiment
[1]
  binding relative to the binding to fCrtac1B (1-609): ~0.1 fold
[2]
  binding result: no binding

From patent US20250296994A1 (SYSMEX, published 2025)
